Reference: patent publication US20160264649A1

Legend:
Experiment in all cases: cell-based or functional assay
[1] = target: HIV-1 Env of isolate MGRM-F1-018 (subtype F) (HIV-1)
[2] = target: HIV-1 Env of isolate MGRM-F1-010 (subtype F) (HIV-1)
[3] = target: HIV-1 Env of pseudovirus isolate MGRM-G-004 (subtype G) (HIV-1)
[4] = target: HIV-1 Env of isolate MGRM-F1-021 (subtype F) (HIV-1)
[5] = target: HIV-1 Env of pseudovirus isolate MGRM-G-014 (subtype G) (HIV-1)
[6] = target: HIV-1 Env of isolate 98CN009 (subtype CRF07_BC) (HIV-1)
[7] = target: HIV-1 Env of isolate MGRM-D-026 (subtype D) (HIV-1)
[8] = target: HIV-1 Env of pseudovirus isolate MGRM-G-015 (subtype G) (HIV-1)
[9] = target: HIV-1 Env of pseudovirus isolate MGRM-G-016 (subtype G) (HIV-1)
[10] = target: HIV-1 Env of isolate MGRM-D-012 (subtype D) (HIV-1)
[11] = target: HIV-1 Env of isolate MGRM-D-002 (subtype D) (HIV-1)
[12] = target: HIV-1 Env of isolate MGRM-D-016 (subtype D) (HIV-1)
[13] = target: HIV-1 Env of isolate MGRM-F1-020 (subtype F) (HIV-1)
[14] = target: HIV-1 Env of pseudovirus isolate MGRM-G-001 (subtype G) (HIV-1)
[15] = target: HIV-1 Env of isolate MGRM-D-024 (subtype D) (HIV-1)
[16] = target: HIV-1 Env of isolate 92UG005 (subtype D) (HIV-1)
[17] = target: HIV-1 Env of pseudovirus isolate MGRM-G-028 (subtype G) (HIV-1)
[18] = target: HIV-1 Env of pseudovirus isolate MGRM-G-024 (subtype G) (HIV-1)
[19] = target: HIV-1 Env of isolate MGRM-F1-006 (subtype F) (HIV-1)
[20] = target: HIV-1 Env of isolate MGRM-F1-016 (subtype F) (HIV-1)
[21] = target: HIV-1 Env of isolate 92UG001 (subtype D) (HIV-1)
[22] = target: HIV-1 Env of isolate MGRM-F1-008 (subtype F) (HIV-1)
[23] = target: HIV-1 Env of isolate 92UG114 (subtype D) (HIV-1)
[24] = target: envelope of aMLV pseudovirus (negative control)
[25] = target: HIV-1 Env of isolate 92UG024 (subtype D) (HIV-1)
[26] = target: HIV-1 Env of isolate MGRM-D-018 (subtype D) (HIV-1)
[27] = target: HIV-1 Env of pseudovirus isolate MGRM-G-013 (subtype G) (HIV-1)
[28] = target: HIV-1 Env of isolate MGRM-F1-013 (subtype F) (HIV-1)
[29] = target: HIV-1 Env of pseudovirus isolate MGRM-G-025 (subtype G) (HIV-1)
[30] = target: HIV-1 Env of isolate 92UG046 (subtype D) (HIV-1)
[31] = target: HIV-1 Env of isolate MGRM-D-029 (subtype D) (HIV-1)
[32] = target: HIV-1 Env of isolate MGRM-F1-012 (subtype F) (HIV-1)
[33] = target: HIV-1 Env of isolate MGRM-D-003 (subtype D) (HIV-1)
[34] = target: HIV-1 Env of isolate MGRM-F1-004 (subtype F) (HIV-1)
[35] = target: HIV-1 Env of isolate MGRM-D-020 (subtype D) (HIV-1)
[36] = target: HIV-1 Env of isolate MGRM-D-021 (subtype D) (HIV-1)
[37] = target: HIV-1 Env of isolate MGRM-F1-022 (subtype F) (HIV-1)
[38] = target: HIV-1 Env of pseudovirus isolate MGRM-G-009 (subtype G) (HIV-1)
[39] = target: HIV-1 Env of isolate MGRM-F1-023 (subtype F) (HIV-1)
[40] = target: HIV-1 Env of isolate MGRM-D-001 (subtype D) (HIV-1)
[41] = target: HIV-1 Env of pseudovirus isolate MGRM-G-017 (subtype G) (HIV-1)
[42] = target: HIV-1 Env of isolate MGRM-D-013 (subtype D) (HIV-1)
[43] = target: HIV-1 Env of isolate MGRM-D-008 (subtype D) (HIV-1)
[44] = target: HIV-1 Env of pseudovirus isolate MGRM-G-006 (subtype G) (HIV-1)
[45] = target: HIV-1 Env of pseudovirus isolate MGRM-G-019 (subtype G) (HIV-1)
[46] = target: HIV-1 Env of isolate MGRM-F1-015 (subtype F) (HIV-1)
[47] = target: HIV-1 Env of isolate MGRM-D-028 (subtype D) (HIV-1)
[48] = target: HIV-1 Env of pseudovirus isolate MGRM-G-011 (subtype G) (HIV-1)
[49] = target: HIV-1 Env of isolate MGRM-D-014 (subtype D) (HIV-1)
[50] = target: HIV-1 Env of isolate MGRM-D-005 (subtype D) (HIV-1)
[51] = target: HIV-1 Env of isolate MGRM-D-004 (subtype D) (HIV-1)
[52] = target: HIV-1 Env of isolate MGRM-D-011 (subtype D) (HIV-1)
[53] = target: HIV-1 Env of isolate MGRM-D-022 (subtype D) (HIV-1)
[54] = target: HIV-1 Env of isolate MGRM-F1-017 (subtype F) (HIV-1)
[55] = target: HIV-1 Env of isolate MGRM-F1-014 (subtype F) (HIV-1)
[56] = target: HIV-1 Env of isolate MGRM-D-019 (subtype D) (HIV-1)
[57] = target: HIV-1 Env of isolate 98CN006 (subtype CRF08_BC) (HIV-1)
[58] = target: HIV-1 Env of pseudovirus isolate MGRM-G-027 (subtype G) (HIV-1)

B1: PGT-136 (antibody, V domains shown)
VH: QLQLQESGPGLVKPSETLSLTCTVSGGSMRGTDWGENDFHYGWIRQSSAKGLEWIGSIHWRGRTTHYKTSFRSRATLSIDTSNNRFSLTFSFVTAADTAVYYCARHKYHDIFRVVPVAGWFDPWGQGLLVTVSS
VL: EIVMTQSPPTLSVSPGETATLSCRASQNVKNNLAWYQLKPGQAPRLLIFDASSRAGGIPDRFSGSGYGTDFTLTVNSVQSEDFGDYFCQQYEEWPRTFGQGTKVDIK
Q: B1 was tested. Which IC50 (neutralization) [1] did it give?
A: > 50 µg/mL

Q: What about the IC50 (neutralization) [2] of the same binder?
A: > 50 µg/mL

Q: And the IC50 [3]?
A: > 50 µg/mL

Q: And the IC50 (neutralization) [4]?
A: > 50 µg/mL

Q: And the IC50 [5]?
A: > 50 µg/mL

Q: And the IC50 (neutralization) [6]?
A: 0.428 µg/mL

Q: What about the IC50 (neutralization) [7] of the same binder?
A: > 50 µg/mL

Q: What about the IC50 [8] of the same binder?
A: > 50 µg/mL

Q: What about the IC50 [9] of the same binder?
A: > 50 µg/mL

Q: What about the IC50 (neutralization) [10] of the same binder?
A: > 50 µg/mL

Q: What about the IC50 (neutralization) [11] of the same binder?
A: > 50 µg/mL

Q: What about the IC50 (neutralization) [12] of the same binder?
A: > 50 µg/mL

Q: What about the IC50 (neutralization) [13] of the same binder?
A: 9.31 µg/mL

Q: What about the IC50 [14] of the same binder?
A: 8.11 µg/mL

Q: And the IC50 (neutralization) [15]?
A: > 50 µg/mL

Q: What about the IC50 (neutralization) [16] of the same binder?
A: > 50 µg/mL

Q: And the IC50 [17]?
A: > 50 µg/mL

Q: And the IC50 [18]?
A: 0.152 µg/mL

Q: And the IC50 (neutralization) [19]?
A: > 50 µg/mL

Q: And the IC50 (neutralization) [20]?
A: > 50 µg/mL

Q: And the IC50 (neutralization) [21]?
A: > 50 µg/mL

Q: And the IC50 (neutralization) [22]?
A: > 50 µg/mL

Q: What about the IC50 (neutralization) [23] of the same binder?
A: > 50 µg/mL

Q: What about the IC50 [24] of the same binder?
A: > 50 µg/mL

Q: What about the IC50 (neutralization) [25] of the same binder?
A: 0.052 µg/mL

Q: What about the IC50 (neutralization) [26] of the same binder?
A: > 50 µg/mL

Q: What about the IC50 [27] of the same binder?
A: > 50 µg/mL

Q: And the IC50 (neutralization) [28]?
A: > 50 µg/mL

Q: And the IC50 [29]?
A: > 50 µg/mL

Q: What about the IC50 (neutralization) [30] of the same binder?
A: > 50 µg/mL

Q: And the IC50 (neutralization) [31]?
A: > 50 µg/mL

Q: And the IC50 (neutralization) [32]?
A: > 50 µg/mL

Q: And the IC50 (neutralization) [33]?
A: > 50 µg/mL

Q: And the IC50 (neutralization) [34]?
A: > 50 µg/mL

Q: And the IC50 (neutralization) [35]?
A: > 50 µg/mL

Q: What about the IC50 (neutralization) [36] of the same binder?
A: > 50 µg/mL

Q: What about the IC50 (neutralization) [37] of the same binder?
A: 2.42 µg/mL

Q: And the IC50 [38]?
A: > 50 µg/mL

Q: What about the IC50 (neutralization) [39] of the same binder?
A: > 50 µg/mL

Q: What about the IC50 (neutralization) [40] of the same binder?
A: > 50 µg/mL

Q: What about the IC50 [41] of the same binder?
A: > 50 µg/mL

Q: What about the IC50 (neutralization) [42] of the same binder?
A: > 50 µg/mL

Q: And the IC50 (neutralization) [43]?
A: > 50 µg/mL

Q: And the IC50 [44]?
A: > 50 µg/mL

Q: What about the IC50 [45] of the same binder?
A: 44.3 µg/mL

Q: And the IC50 (neutralization) [46]?
A: > 50 µg/mL

Q: And the IC50 (neutralization) [47]?
A: > 50 µg/mL

Q: And the IC50 [48]?
A: > 50 µg/mL

Q: What about the IC50 (neutralization) [49] of the same binder?
A: > 50 µg/mL

Q: And the IC50 (neutralization) [50]?
A: > 50 µg/mL

Q: What about the IC50 (neutralization) [51] of the same binder?
A: > 50 µg/mL

Q: And the IC50 (neutralization) [52]?
A: > 50 µg/mL

Q: And the IC50 (neutralization) [53]?
A: > 50 µg/mL

Q: What about the IC50 (neutralization) [54] of the same binder?
A: > 50 µg/mL

Q: What about the IC50 (neutralization) [55] of the same binder?
A: > 50 µg/mL

Q: What about the IC50 (neutralization) [56] of the same binder?
A: > 50 µg/mL

Q: And the IC50 (neutralization) [57]?
A: 0.406 µg/mL

Q: And the IC50 [58]?
A: 45.2 µg/mL
